According to paper PMC10907714:

Target: human EGFR-WT (human) (UniProt P00533)

human recombinant Epiregulin (from UniProt O14944 63-108) (ligand)
potency of hEpiregulin against hEGF for recruitment of the seven SH2 biosensors to the plasma membrane (ebBRET, Fig. 2a), HEK293 cells with EGFR-WT, 10 min (fold less potent than hEGF): > 100
